{"source": "patent US6713606", "molecular_target": "T1, purified human Lysn-Plasminogen, P00747", "T1 chain": "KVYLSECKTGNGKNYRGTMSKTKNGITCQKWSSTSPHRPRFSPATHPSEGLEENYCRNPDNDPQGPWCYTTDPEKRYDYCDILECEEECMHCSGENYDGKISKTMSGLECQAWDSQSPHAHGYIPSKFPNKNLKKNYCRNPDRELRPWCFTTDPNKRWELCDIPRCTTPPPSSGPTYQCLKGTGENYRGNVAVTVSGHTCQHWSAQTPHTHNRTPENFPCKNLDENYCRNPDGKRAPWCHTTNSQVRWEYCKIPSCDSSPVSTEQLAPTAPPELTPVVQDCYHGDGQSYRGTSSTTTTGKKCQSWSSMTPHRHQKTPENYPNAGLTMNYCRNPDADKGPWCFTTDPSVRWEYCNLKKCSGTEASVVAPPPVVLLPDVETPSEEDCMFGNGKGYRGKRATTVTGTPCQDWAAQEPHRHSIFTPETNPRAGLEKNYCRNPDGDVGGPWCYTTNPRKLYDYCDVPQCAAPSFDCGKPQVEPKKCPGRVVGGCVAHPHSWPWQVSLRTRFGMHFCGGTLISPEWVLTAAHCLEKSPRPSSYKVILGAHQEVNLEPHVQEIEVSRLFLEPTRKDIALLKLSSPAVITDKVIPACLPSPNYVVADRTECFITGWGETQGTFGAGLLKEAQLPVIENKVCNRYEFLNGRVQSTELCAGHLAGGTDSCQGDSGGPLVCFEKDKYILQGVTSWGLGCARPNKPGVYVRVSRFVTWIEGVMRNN"}
{"protein": "thiolated streptokinase (protein) IAGPEWLLDRPSVNNSQLVVSVAGTVEGTNQDISLKFFEIDLTSRPAHGGKTEQGLSPKSKPFATDSGAMSHKLEKADLLKAIQEQLIANVHSNDDYFEVIDFASDATITDRNGKVYFADKDGSVTLPTQPVQEFLLSGHVRVRPYKEKPIQNQAKSVDVEYTVQFTPLNPDDDFRPGLKDTKLLKTLAIGDTITSQELLAQAQSILNKNHPGYTIYERDSSIVTHDNDIFRTILPMDQEFTYRVKNREQAYRINKKSGLNEEINNTDLISEKYYVLKKGEKPYDPFDRSHLKLFTIKYVDVDTNELLKSEQLLTASERNLDFRDLYDPRDKAKLLYNNLDAFGIMDYTLTGKVEDNHDDTNRIITVYMGKRPEGENASYHLAYDKDRYTEEEREVYSYLRYTGTPIPDNPNDK", "values": [{"measurement": "plasmin generation in the plasminogen activation assay (S-2251 substrate units)", "value": "thiolated SK (1 nM), generated plasmin at a nearly linear of 4225 SU/ml"}]}
